Experimental data published in publication doi:10.1101/2025.08.11.669711, “Site-Specific Nanobody Inhibitors of the Proteasomal Deubiquitinase UCH37” (bioRxiv, 2025).
Positions count from the first letter of the chain named. Numbers in names are those of the source.

Legend:
UCH37•RPN13^DEUBAD [1] = target: T1, UCH37•RPN13^DEUBAD (Homo sapiens, strain); experiment: SEC-MALS; nanobodies incubated with UCH37•RPN13^DEUBAD on ice 30 min; TSKgel G3000SWXL; 50 mM sodium phosphate pH 6.5, 150 mM sodium chloride, 10% isopropanol; room temperature; conditions: both partners purified
T1 construct: from His8-MBP-TEV-UCH37 in pVP16 (DNASU); RPN13 (ADRM1) DEUBAD domain, aa 253-407, cloned from His10-RPN13 in pET19b; source: E. coli BL21(DE3) pLysS, co-purified (Ni-NTA, TEV, GST resin, 3C, Superdex 200); not shown: His8, N-terminal, cleaved; MBP, N-terminal, cleaved; GST, N-terminal, cleaved
T1 chain 1: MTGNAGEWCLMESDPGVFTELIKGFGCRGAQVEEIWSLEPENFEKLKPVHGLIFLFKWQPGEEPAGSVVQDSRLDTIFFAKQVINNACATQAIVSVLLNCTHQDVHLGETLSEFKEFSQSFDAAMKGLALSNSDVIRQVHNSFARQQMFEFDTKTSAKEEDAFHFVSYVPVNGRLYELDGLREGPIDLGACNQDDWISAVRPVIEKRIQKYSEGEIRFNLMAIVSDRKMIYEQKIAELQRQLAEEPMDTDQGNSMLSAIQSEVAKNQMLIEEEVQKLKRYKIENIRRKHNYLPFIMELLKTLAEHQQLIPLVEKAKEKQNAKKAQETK
T1 chain 2: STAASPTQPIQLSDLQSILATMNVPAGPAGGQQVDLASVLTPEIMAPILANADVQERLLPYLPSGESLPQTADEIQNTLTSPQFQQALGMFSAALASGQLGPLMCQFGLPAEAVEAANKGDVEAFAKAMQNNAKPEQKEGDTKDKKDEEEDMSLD

UCH37•RPN13 = target: T2, UCH37•RPN13 (Homo sapiens, strain); experiment: MST; nanobody labelled with fluorescein isothiocyanate at 20 nM (Nb-ncS1) or 50 nM (Nb-cS1); UCH37•RPN13 titrated 4 μM to 0.12 nM or 46 μM to 2.8 nM; 50 mM Tris pH 7.4, 150 mM NaCl, 10 mM MgCl2, 0.05% tween-20; room temperature; 1:1 Kd fit; duplicates; conditions: both partners purified
T2 construct: from His8-MBP-TEV-UCH37 in pVP16 (DNASU); RPN13 (ADRM1), His10-RPN13 in pET19b; source: E. coli BL21(DE3) pLysS, co-purified (amylose, TEV, Ni-NTA, Superdex 200); not shown: His8, N-terminal, cleaved; MBP, N-terminal, cleaved
T2 chain 1: T1 chain 1
T2 chain 2: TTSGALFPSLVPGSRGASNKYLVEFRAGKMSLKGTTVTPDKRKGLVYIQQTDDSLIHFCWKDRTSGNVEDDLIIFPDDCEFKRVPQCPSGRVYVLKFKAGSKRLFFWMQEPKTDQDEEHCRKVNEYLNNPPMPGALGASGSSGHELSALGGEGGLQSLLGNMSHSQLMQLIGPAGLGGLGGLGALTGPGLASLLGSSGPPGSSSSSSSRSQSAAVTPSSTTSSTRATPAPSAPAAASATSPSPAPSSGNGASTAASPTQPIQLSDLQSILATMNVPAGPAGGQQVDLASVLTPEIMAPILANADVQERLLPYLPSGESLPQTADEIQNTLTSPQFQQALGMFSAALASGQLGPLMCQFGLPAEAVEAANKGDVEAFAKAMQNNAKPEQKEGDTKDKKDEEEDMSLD

HSP70 chaperone HSPA1B = target: T3, HSP70 chaperone HSPA1B (Homo sapiens, UniProt P0DMV9); experiment: affinity purification with mass spectrometry; as a15, but UCH37KO HEK293FT cells; conditions: partners not purified
T3 construct: endogenous HSPA1B; source: endogenous, UCH37KO HEK293FT lysate
T3 sequence (P0DMV9 whole entry): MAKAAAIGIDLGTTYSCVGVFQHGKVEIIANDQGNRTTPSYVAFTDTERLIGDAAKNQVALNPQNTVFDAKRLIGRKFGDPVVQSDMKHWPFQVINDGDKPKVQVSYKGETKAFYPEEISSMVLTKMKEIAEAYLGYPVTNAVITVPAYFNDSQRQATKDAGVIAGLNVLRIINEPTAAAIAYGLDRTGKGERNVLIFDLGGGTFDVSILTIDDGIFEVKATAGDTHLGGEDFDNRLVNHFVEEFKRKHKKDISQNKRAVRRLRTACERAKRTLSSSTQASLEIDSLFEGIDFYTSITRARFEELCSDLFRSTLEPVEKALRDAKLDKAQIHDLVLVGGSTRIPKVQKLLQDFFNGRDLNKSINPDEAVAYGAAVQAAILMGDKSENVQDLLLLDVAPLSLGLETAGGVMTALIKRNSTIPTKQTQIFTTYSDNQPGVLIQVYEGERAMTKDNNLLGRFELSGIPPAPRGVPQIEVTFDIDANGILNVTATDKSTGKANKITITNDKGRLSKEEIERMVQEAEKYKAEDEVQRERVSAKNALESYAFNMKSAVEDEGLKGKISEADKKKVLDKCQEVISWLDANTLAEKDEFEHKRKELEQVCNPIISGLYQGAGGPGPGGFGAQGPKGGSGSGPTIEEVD

[2] = target: translation elongation factor EEF2 (Homo sapiens, UniProt P13639); experiment: as above; conditions: partners not purified
UCH37 (endogenous) [3] = target: T4, UCH37 (endogenous) (Homo sapiens (HEK293FT, endogenous)); experiment: affinity purification with mass spectrometry; WT HEK293FT transfected with HaloTag nanobodies; immunoprecipitation, on-bead trypsin digestion, TMT labelling; compared with Halo-Nb-ctrl; conditions: partners not purified
T4 construct: endogenous UCH37 (UCHL5) of HEK293FT cells; also called UCHL5
T4 chain: T1 chain 1

UCH37 (endogenous) [4] = target: T4, UCH37 (endogenous); experiment: co-IP; WT HEK293FT transfected with HA-Flag-tagged nanobodies; anti-FLAG resin 3 hours 4 °C; lysis in 50 mM HEPES pH 7.5, 50 mM NaCl, 5 mM MgCl2, 2 mM ATP, 1 mM DTT, 10% glycerol; blots of UCH37 and proteasome subunits; conditions: partners not purified
UCH37 [5] = target: T5, UCH37 (Homo sapiens, strain); experiment: not stated; recombinant purified Nb-v1 with free UCH37 (Supplementary Figure 2b); conditions: both partners purified
T5 construct: from His8-MBP-TEV-UCH37 in pVP16 (DNASU); The purification of free UCH37 is not described; in the complexes with RPN13 the His-MBP tag was removed with TEV protease; also called UCHL5; free UCH37; source: E. coli, purified (His-MBP-TEV-UCH37 construct; individually purified for the crystal)
T5 chain: T1 chain 1

UCH37•RPN13^DEUBAD [6] = target: T1, UCH37•RPN13^DEUBAD; experiment: native MS; 150 mM ammonium acetate pH 6.8; UCH37•RPN13^DEUBAD variants premixed with Nb-ncS1 in equimolar ratio, 1 hour on ice; final 10 uM; nanospray, Synapt G2; conditions: both partners purified
Ub-UCH37•RPN13^DEUBAD = target: T6, Ub-UCH37•RPN13^DEUBAD (Homo sapiens, strain, active site cysteine covalently linked to Ub propargylamine (Ub-PA) | C-terminal propargylamine after residue 75, linked to the active site cysteine of UCH37; biotin on the Avi tag in the …); experiment: as above; conditions: both partners purified
T6 construct: from His8-MBP-TEV-UCH37 in pVP16 (DNASU); RPN13 (ADRM1) DEUBAD domain, aa 253-407, cloned from His10-RPN13 in pET19b; ubiquitin residues 1-75 (Ub_(1-75)-propargylamine, made from Avi-Ub_(1-75)-intein); In the pull-down it was offered as a mixture with unconjugated UCH37•RPN13^DEUBAD; also called Ub conjugated UCH37•RPN13^DEUBAD; UCH37•RPN13^DEUBAD -Ub-PA; source: UCH37•RPN13^DEUBAD (E. coli, …)

UCH37 [7] = target: T5, UCH37; experiment: SPR; BIACORE T200, His-Nb immobilised on NTA chip (about 30 RU); purified UCH37 injected, single cycle kinetics; 50 mM HEPES pH 7.5, 50 mM NaCl, 50 μM EDTA, 0.005% TWEEN 20; 25 °C; 1:1 model; conditions: both partners purified

B1: Nb-cS1 (His-tagged) (VHH)
VHH: QVQLQESGGGLVQAGGSLRLSCAASGYISRPRTMGWYRQAPGKEREFVAIISNGAITNYADSVKGRFTISRDNAKNTVYLQMNSLKPEDTAVYYCAAGRNIWHAYWGQGTQVTVSS
notes: synthetic nanobody from a yeast display library: clone Nb-v2 matured with L47F, T50I, K99R; Cloned into pET28b; Labelled with fluorescein isothiocyanate for MST; also called 6xHis-tagged Nb-cS1; cNb; source: E. coli BL21 (DE3), purified (Ni-NTA, Superdex 75)
In the case of B1, the “stoichiometry N” value (UCH37•RPN13^DEUBAD [1]) is reported as 1 and the Kd (UCH37•RPN13) is reported as 200 nM.

B2: Halo-Nb-cS1 (expressed in cells) (VHH)
VHH: B1 VHH
notes: as the VHH of m15 (Nb-cS1); The authors suspect that this fusion is misfolded in human cells; also called Halo-tagged Nb-cS1; source: HEK293FT (WT or UCH37KO), transiently transfected, in lysate; not shown: HaloTag, C-terminal, kept
B2: binds (HSP70 chaperone HSPA1B); binds [2]; binds (UCH37 (endogenous) [3]).

B3: HA-Flag-tagged Nb-cS1 (VHH)
VHH: B1 VHH
notes: as the VHH of m15 (Nb-cS1); source: HEK293FT, transiently transfected (1436 pcDNA3 Flag HA vector), in lysate or in fixed cells
B3: binds (UCH37 (endogenous) [4]).

B4: Nb-v1 (recombinant) (VHH)
VHH: QVQLQESGGGLVQAGGSLRLSCAASGYIFRSYRMGWYRQAPGKERELVAAIGLGGNTYYADSVKGRFTISRDNAKNTVYLQMNSLKPEDTAVYYCAALHGKPPAFSPFAYWGQGTQVTVSS
notes: most enriched clone of the first yeast display selection, parent of Nb-ncS1 (Nb-ncS1 = Nb-v1 with Q1R, L80Q, H99Y, A109P); His-tagged nanobodies were made in E. coli BL21 (DE3) by the general method; source: recombinant production and purification
For B4, the Kd (UCH37 [5]) was 0.3 nM.

B5: Nb-ncS1 (His-tagged) (VHH)
VHH: B4 VHH with Q1R, L80Q, H99Y, A109P
notes: as the VHH of Nb-v1 with the four stated changes; Cloned into pET28b; Labelled with fluorescein isothiocyanate for MST; also called 6xHis-tagged Nb-ncS1; His-Nb; source: E. coli BL21 (DE3), purified (Ni-NTA, Superdex 75)
With B5 the “stoichiometry N” value (UCH37•RPN13^DEUBAD [6]) was 1, the “stoichiometry N” value (Ub-UCH37•RPN13^DEUBAD) was 1 and the Kd (UCH37 [7]) was 0.125 nM.
